Data taken from PMC10279719 (Nature Communications, 2023).
Non-standard residues stand in square brackets, D forms with d. pY = N[C@@H](Cc1ccc(OP(=O)(O)O)cc1)C(=O)O

T1: PEAK1^IDR1 (residues 1082-1746), from insect cells, phosphorylated by Src (human, UniProt Q9H792 1082-1746, phosphotyrosine at Y1107 (by Src in vitro, shown by MS/MS); other Src sites not stated; biotin (EZ-Link NHS-PEG4-Biotin, 1:1 molar ratio))
T1 construct: human PEAK1, UniProt Q9H792, residues 1082-1746; also called PEAK1-IDR1 (+ Src phosphorylation); source: Sf21 insect cells, purified; phosphorylated in vitro with recombinant Src kinase domain
T1 sequence (looked up): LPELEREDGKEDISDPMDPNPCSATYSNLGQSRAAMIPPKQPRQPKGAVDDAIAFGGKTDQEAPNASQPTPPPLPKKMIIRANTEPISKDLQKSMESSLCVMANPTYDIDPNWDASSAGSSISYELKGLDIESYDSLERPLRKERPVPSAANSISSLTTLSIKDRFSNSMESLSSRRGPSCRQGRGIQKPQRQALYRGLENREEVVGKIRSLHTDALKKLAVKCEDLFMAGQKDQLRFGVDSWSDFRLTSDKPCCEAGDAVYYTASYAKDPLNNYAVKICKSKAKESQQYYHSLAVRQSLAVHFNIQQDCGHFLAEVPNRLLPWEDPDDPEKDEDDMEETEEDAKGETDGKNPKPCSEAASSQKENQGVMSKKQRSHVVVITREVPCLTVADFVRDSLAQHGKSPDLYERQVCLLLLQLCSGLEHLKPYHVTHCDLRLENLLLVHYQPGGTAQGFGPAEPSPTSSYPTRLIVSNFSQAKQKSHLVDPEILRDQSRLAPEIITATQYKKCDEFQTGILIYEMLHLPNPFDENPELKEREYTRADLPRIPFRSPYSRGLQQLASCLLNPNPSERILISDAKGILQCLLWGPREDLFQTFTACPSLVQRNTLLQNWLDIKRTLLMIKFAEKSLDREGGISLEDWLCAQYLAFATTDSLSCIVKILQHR

T2: PEAK2^IDR1 (residues 802-1406), from insect cells, phosphorylated by Src (human, UniProt Q86YV5 802-1406, phosphorylated with Src kinase, sites not stated; phosphorylation of the tandem site 14-3-3 motif (RAASSP) found by proteomic analysis; biotin (EZ-Link NHS-PEG4-Biotin, 1:1 molar ratio))
T2 construct: human PEAK2 (SgK223, PRAG1), UniProt Q86YV5, residues 802-1406; also called PEAK2-IDR1 (+ Src phosphorylation); source: Sf21 insect cells, purified; phosphorylated in vitro with recombinant Src kinase domain
T2 sequence (looked up): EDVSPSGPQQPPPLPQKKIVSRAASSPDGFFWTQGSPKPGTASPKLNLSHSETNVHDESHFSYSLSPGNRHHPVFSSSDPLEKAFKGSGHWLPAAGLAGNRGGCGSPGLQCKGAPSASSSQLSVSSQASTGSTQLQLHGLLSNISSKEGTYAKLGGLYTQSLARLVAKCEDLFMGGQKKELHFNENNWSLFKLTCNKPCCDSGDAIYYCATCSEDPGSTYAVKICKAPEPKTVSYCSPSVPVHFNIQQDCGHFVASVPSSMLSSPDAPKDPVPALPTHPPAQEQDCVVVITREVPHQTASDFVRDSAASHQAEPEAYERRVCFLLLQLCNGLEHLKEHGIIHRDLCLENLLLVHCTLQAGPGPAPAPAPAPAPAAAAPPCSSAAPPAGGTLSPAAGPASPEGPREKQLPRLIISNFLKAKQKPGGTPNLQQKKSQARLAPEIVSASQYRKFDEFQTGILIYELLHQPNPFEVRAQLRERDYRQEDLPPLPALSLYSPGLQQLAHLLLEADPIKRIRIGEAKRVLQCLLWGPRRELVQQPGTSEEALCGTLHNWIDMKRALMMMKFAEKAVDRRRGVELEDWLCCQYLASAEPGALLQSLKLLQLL

B1: CrkII SH2 domain (CrkIISH2) (domain or fragment, human, UniProt P46108-1 6-120, looked up)
chain: DSEERSSWYWGRLSRQEAVALLQGQRHGVFLVRDSSTSPGDYVLSVSENSRVSHYIINSSGPRPPVPPSPAQPPPGVSPSRLRIGDQEFDSLPALLEFYKIHYLDTTTLIEPVSR
modifications: biotin (EZ-Link NHS-PEG4-Biotin) in the SPR experiment only
notes: CrkII, human, UniProt P46108-1, residues 6-120; Purifies as monomer with a proportion of dimer
B2: CrkII SH2 domain (CrkII^SH2, residues 6–120) (domain or fragment, human, UniProt P46108-1 6-120, looked up)
chain: B1 chain
modifications: biotin (EZ-Link NHS-PEG4-Biotin) where immobilised for SPR
notes: human CrkII residues 6-120, SH2 domain
B3: PEAK SH2-pY consensus peptide (Ac-T(pY)SNLGQ-NH2) (peptide)
peptide: Ac-T[pY]SNLGQ-NH2
notes: also called consensus pY peptide; SH2-pY peptide; source: synthetic peptide, bought: Mimotopes (95% purity)
B4: PEAK2 809-821 proline-rich motif peptide (Ac-QPPPLPQKKIVSR-NH2) (peptide)
peptide: Ac-QPPPLPQKKIVSR-NH2
notes: human PEAK2 (SgK223, PRAG1) residues 809-821; source: synthetic peptide, bought: Mimotopes (95% purity)
B5: CrkII SH2-NSH3 construct lacking the CSH3 domain (CrkIIΔCSH3) (domain or fragment, human, UniProt P46108-1 1-228, looked up)
chain: MAGNFDSEERSSWYWGRLSRQEAVALLQGQRHGVFLVRDSSTSPGDYVLSVSENSRVSHYIINSSGPRPPVPPSPAQPPPGVSPSRLRIGDQEFDSLPALLEFYKIHYLDTTTLIEPVSRSRQGSGVILRQEEAEYVRALFDFNGNDEEDLPFKKGDILRIRDKPEEQWWNAEDSEGKRGMIPVPYVEKYRPASASVSALIGGNQEGSHPQPLGGPEPGPYAQPSVNT
notes: CrkII, human, residues 1-228
B6: CrkII^∆CSH3 (SH2-NSH3, residues 1–228) (domain or fragment, human, UniProt P46108-1 1-228, looked up)
chain: B5 chain
notes: human CrkII residues 1-228, lacking the CSH3 domain
B7: PEAK1 1106-1121-pY1107 peptide (Ac-T(pY)SNLGQSRAAMIPPK-NH2) (peptide)
peptide: Ac-T[pY]SNLGQSRAAMIPPK-NH2
notes: human PEAK1 residues 1106-1121; source: synthetic peptide, bought: Mimotopes (95% purity)
B8: PEAK1 1150-1162 proline-rich motif peptide (Ac-PTPPPLPKKMIIR-NH2) (peptide)
peptide: Ac-PTPPPLPKKMIIR-NH2
notes: source: synthetic peptide, bought: Mimotopes (95% purity)
B9: PEAK1^IDR1 (human PEAK1 residues 1082–1746) (domain or fragment, UniProt Q9H792 1082-1746, looked up)
chain: T1 sequence (looked up)
modifications: biotin (EZ-Link NHS-PEG4-Biotin) where immobilised for SPR; no phosphorylation observed at the tandem 14-3-3 motif
notes: human PEAK1 residues 1082-1746 (part of the IDR with Y1107 and the tandem site, SHED and PsK domains); the His tag is TEV-cleavable; also called PEAK1^IDR1 dimer; not shown: His tag, N-terminal, kept
B10: full length CrkII, monomer (CrkII^FL monomer) (natural protein, human, UniProt P46108-1 1-304, looked up)
chain: MAGNFDSEERSSWYWGRLSRQEAVALLQGQRHGVFLVRDSSTSPGDYVLSVSENSRVSHYIINSSGPRPPVPPSPAQPPPGVSPSRLRIGDQEFDSLPALLEFYKIHYLDTTTLIEPVSRSRQGSGVILRQEEAEYVRALFDFNGNDEEDLPFKKGDILRIRDKPEEQWWNAEDSEGKRGMIPVPYVEKYRPASASVSALIGGNQEGSHPQPLGGPEPGPYAQPSVNTPLPNLQNGPIYARVIQKRVPNAYDKTALALEVGELVKVTKINVSGQWEGECNGKRGHFPFTHVRLLDQQNPDEDFS
modifications: biotin (EZ-Link NHS-PEG4-Biotin, 1:1 molar ratio) where it was immobilised (a1)
notes: full length human CrkII, printed as UniProt P46108-1, residues 1-330
B11: full length CrkII, dimer (CrkII^FL dimer) (natural protein, human, UniProt P46108-1 1-304, looked up)
chain: B10 chain
modifications: biotin (EZ-Link NHS-PEG4-Biotin, 1:1 molar ratio) where it was immobilised (a1)
notes: as for B10

Legend:
[1] = target: the molecule itself; experiment: SEC; S75 16/600 profile of the purified CrkII constructs, with SDS-PAGE of fractions
[2] = target: the molecule itself; experiment: SEC; single purified proteins on Superdex 200 (purification and re-runs), 20 mM HEPES pH 7.5–8.5, 150 mM NaCl, 1 mM TCEP; oligomeric state
[3] = target: T3, CrkII SH2 domain (CrkII^SH2, residues 6-120) (human, UniProt P46108-1 6-120, biotin (EZ-Link NHS-PEG4-Biotin, 1:1 molar ratio) where it was immobilised (a1)); experiment: SPR; biotinylated adapter proteins captured with a biotin CAPture kit, pY peptides as analytes; Biacore 8K+, 20 °C, HBS-TP (20 mM HEPES pH 7.4, 150 mM NaCl, 1 mM TCEP, 0.005% Tween-P20) with 2% DMSO; 1 M NaCl regeneration; steady state, 1:1 model; conditions: both partners purified
T3 construct: human CrkII SH2 domain, UniProt P46108-1, residues 6-120; The His tag is TEV-cleavable and was cleaved 'when required'

[4] = target: B10; experiment: as above; conditions: both partners purified
[5] = target: B11; experiment: as above; conditions: both partners purified
[6] = target: T4, CrkII N-terminal SH3 domain (CrkII^NSH3, residues 134-191) (human, UniProt P46108-1 134-191); experiment: SPR; CrkII NSH3 amine coupled to a CM5 chip, PRM peptides as analytes (100 µM-100 nM); Biacore S200, 20 °C, HBS-TP; steady state, 1:1 model; conditions: both partners purified
T4 construct: human CrkII NSH3 domain, UniProt P46108-1, residues 134-191; Amine coupled to a CM5 chip in a2; analyte in a4; in the syringe in ITC

[7] = target: T1, PEAK1^IDR1 (residues 1082-1746), from …; experiment: SPR; biotinylated PEAK proteins (with or without Src phosphorylation) captured with a biotin CAPture kit; Grb2 FL, Grb2 SH2, CrkII SH2, CrkII FL monomer or dimer as analytes; Biacore 8K+, 20 °C, HBS-TP with NaCl raised to 500 mM; 1 M NaCl regeneration; steady state; conditions: both partners purified
[8] = target: T2, PEAK2^IDR1 (residues 802-1406), from …; experiment: as above; conditions: both partners purified

B1: binds [1].

B2: binds [2].

B3 gave a Kd [3] of 8.8 µM, a Kd [4] of 14.5 µM and a Kd [5] of 12.7 µM.

B4 gave a Kd [6] of 2400 nM.

B5: binds [1].

B6: binds [2].

In the case of B7, the Kd [3] is reported as 3.2 µM, the Kd [4] is reported as 3.5 µM and the Kd [5] is reported as 3.1 µM.

B8 was tested, and the Kd [6] was 900 nM.

B9: binds [2].

Binder B10 has a Kd [7] of 1500 nM and a Kd [8] of 2120 nM.

Work on B11 yielded a Kd [7] of 1490 nM and a Kd [8] of 1380 nM.
